Results from the supplement of paper PMC12764529.
± gives the half width of the 95% confidence interval.

What was measured:
[1] = folding stability dG unfold from chymotrypsin proteolysis; higher = more stable
How it was run: (§1)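 Mini-proteins designed to be under 80 residues and free of cysteine were carried in a PA-tagged cDNA display construct and digested with trypsin and with chymotrypsin. Each protease was applied at 11 threefold-diluted concentrations, alongside a no-protease condition, before sequencing. K50 came from Bayesian fitting of the sequencing counts, and unfolding free energy was obtained by comparing it with a sequence-predicted unfolded-state K50 and a shared folded-state K50, for each protease separately or for both together. Designs were retained only if their AlphaFold2 dimer inter-PAE exceeded 15.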

[2] = folding stability dG unfold (combined trypsin and chymotrypsin); higher = more stable
How it was run: as §1

[3] = folding stability dG unfold from trypsin proteolysis; higher = more stable
How it was run: as §1

Sequence	folding stability dG unfold [1]	folding stability dG unfold [2]	folding stability dG unfold [3]
SAGGSAGGSASITYENGYATITLKVPEGTVRIVDLATNEVIEIKPGDTVTIRVKIPPPPPESAGGSAGGSAG [r3_185_TrROS_Hall]	1.55 ± 0.059 kcal/mol	1.73 ± 0.18 kcal/mol	2.31 ± 0.095 kcal/mol
SAGGSAGGSASKDDKIVKVKVFTIKLKPNLEGLPKKVRELLEKLGIKEIKITFVSVFNPEDFSAGGSAGGSA [r18_127_TrMRF]	4.34 ± 0.14 kcal/mol	3.93 ± 0.17 kcal/mol	3.23 ± 0.2 kcal/mol
SAGGSAGGSASKTIFIPAAVVAANPEKAVEFAEKVREEFEKKGLSVKTEVLPDGGIGIHVGSAGGSAGGSAG [r3_75_TrMRF]	1.61 ± 0.054 kcal/mol	1.88 ± 0.087 kcal/mol	2.07 ± 0.071 kcal/mol
SAGGSAGGSASLDLSNATVLEEKTDPAKGLKTLTIKTPTSTLTITVEFDENGNPVKMTVFESAGGSAGGSAG [r3_5_JUSTAS]	2.2 ± 0.057 kcal/mol	2.03 ± 0.048 kcal/mol	1.71 ± 0.037 kcal/mol
SAGGSAGGSASMAPPEVLSLPVEILEKSPDGSVTVLVPETGEVLTFPSPKVNVTPDGTLNLSSAGGSAGGSA [r18_89_JUSTAS]	-0.611 ± 0.16 kcal/mol	0.0808 ± 0.1 kcal/mol	0.416 ± 0.042 kcal/mol
SAGGSAGGSASMKKKKFVVKTEEEAEKVIAELKAKVPKGTEVEIYIKNEDGTLEKYAIIKISAGGSAGGSAG [r3_92_JUSTAS]	3.15 ± 0.047 kcal/mol	3.13 ± 0.15 kcal/mol	2.91 ± 0.11 kcal/mol
SAGGSAGGSASSLEESLRAELPEGKPARIEVKVELEKTPNGKLKVKEVKVTVTLPNGPVVGSAGGSAGGSAG [r3_247_JUSTAS]	1.52 ± 0.072 kcal/mol	1.24 ± 0.11 kcal/mol	0.572 ± 0.077 kcal/mol
SAGGSAGGSASSSPVTVETKTLEVEFKDDEIIVKEKVTTKYPNGKTTVTVTTTTIKVDPNLDSAGGSAGGSA [r18_291_JUSTAS]	1.55 ± 0.1 kcal/mol	1.34 ± 0.12 kcal/mol	1.21 ± 0.1 kcal/mol
SAGGSAGGSASSSSSIKFLSEEEIKLPDGTPVKVKIYKDPSNNKEYLYLPESKVWLPISKISAGGSAGGSAG [r3_181_JUSTAS]	1.74 ± 0.037 kcal/mol	1.67 ± 0.1 kcal/mol	1.41 ± 0.033 kcal/mol
SAGGSAGGSASTSEKIDYPNPPITVTRLPNGVVLVTYSDSNTTTVIPESVLATLPPTVPLFSAGGSAGGSAG [r3_256_JUSTAS]	1.12 ± 0.013 kcal/mol	1.33 ± 0.043 kcal/mol	1.58 ± 0.048 kcal/mol
SAGGSAGGSASVEEIADKIQQLHGVDVEVTEPQPNSNGYPRWRIKVDLKGLPEKWMQELLNSAGGSAGGSAG [r3_40_TrROS]	0.217 ± 0.19 kcal/mol	0.372 ± 0.11 kcal/mol	0.681 ± 0.17 kcal/mol
SAGGSAGGSASVKVEEKPTEIVITTKSPSPVITVETIPLSPDGVPVGKKTTTISLPPKDIILSAGGSAGGSA [r18_300_JUSTAS]	-0.778 ± 0.15 kcal/mol	-0.719 ± 0.47 kcal/mol	-0.3 ± 0.11 kcal/mol
SAGGSAGGSASVTTTTTPLPGDRTLTTTTYPDGTVKVTTYTVDTATGTVTSTSTTLSPATLTSAGGSAGGSA [r18_325_JUSTAS]	0.254 ± 0.12 kcal/mol	0.856 ± 0.082 kcal/mol	1.15 ± 0.042 kcal/mol
SAGGSAGGSATIRIPWDKIKDALEEHDMTVTNIEPNPGGNPWVEIEVNGTPEQREKIQEALKSAGGSAGGSA [r18_175_TrROS]	0.255 ± 0.15 kcal/mol	0.313 ± 0.12 kcal/mol	0.369 ± 0.045 kcal/mol
SAGGSAGGSATKTIKVKNADGETVELTVEKREDGSYKITLTFPDGTKKTFTIKPGEKIVIKPSAGGSAGGSA [r18_115_TrROS_Hall]	4.24 ± 0.098 kcal/mol	3.9 ± 0.12 kcal/mol	2.42 ± 0.11 kcal/mol
SAGGSAGGSAVLDPSSPRPFEIVEVRRVRFEATVSFAGRPRKLEIEVDLLLVRDPSNGRIGSAGGSAGGSAG [r3_391_TrMRF]	3.54 ± 0.049 kcal/mol	3.14 ± 0.15 kcal/mol	2.19 ± 0.04 kcal/mol
SAGGSAGGSAVPPDRPFTLPVLTLVRDPETGELYLARAEVTFLAPDPVITAARLEVFPPDADFSAGGSAGGS [r12_868_TrMRF]	1.69 ± 0.085 kcal/mol	1.34 ± 0.09 kcal/mol	0.761 ± 0.058 kcal/mol
SAGGSAGGSAVSPDETVPIKIDGKEVTVTFNGSKATITFPDGTVIEGTVSTEGSKLTLDLNLSAGGSAGGSA [r18_172_JUSTAS]	1.26 ± 0.059 kcal/mol	1.46 ± 0.13 kcal/mol	1.74 ± 0.053 kcal/mol
SAGGSAGGSAVYRTEDGRWVLVVEEVDGELTVHVYRRVDGRWELVETYPLEDLSPEARAALSAGGSAGGSAG [r3_241_TrROS_Hall]	2.33 ± 0.029 kcal/mol	2.03 ± 0.053 kcal/mol	1.48 ± 0.025 kcal/mol
SAGGSAGGSAWGWISFNFEFLMFNPDGMFMPFRMQIDIRVEVKPEPKPKPKPKRDPNGKWKSAGGSAGGSAG [r3_252_TrROS]	2.8 ± 0.082 kcal/mol	2.65 ± 0.15 kcal/mol	1.91 ± 0.034 kcal/mol
SAGGSAGGSAWHIRIHPGNEPQWIPIDDLRDKGLPPEELAEELQKKFGFKVEIVDPGWIRVKSAGGSAGGSA [r18_7_TrROS]	-0.364 ± 0.42 kcal/mol	-0.348 ± 0.24 kcal/mol	-0.284 ± 0.26 kcal/mol
SAGGSAGGSAWIVIPAEDIKENLDEIEFRNGDGQEYRIKVDVQEHGDRPYVMIDIVPPGQPISAGGSAGGSA [r18_447_TrROS]	0.882 ± 0.15 kcal/mol	0.472 ± 0.18 kcal/mol	-0.413 ± 0.28 kcal/mol
SAGGSAGGSAWKKFMLEFPDGRPFMIEIDPDEPGRVKIYPPGNGKEEEIPPDDLKDLKITASAGGSAGGSAG [r3_451_TrROS]	0.718 ± 0.27 kcal/mol	0.507 ± 0.33 kcal/mol	-0.0506 ± 0.36 kcal/mol
SAGGSAGGSAWRLYIGGQKIEIPPGGPVKLERHKNGWVKIEIKMPGGRKKEFTIPIPPGATSAGGSAGGSAG [r3_207_TrROS]	1.76 ± 0.17 kcal/mol	1.66 ± 0.18 kcal/mol	1.23 ± 0.14 kcal/mol
SAGGSAGGSAYELVIVGTPELALKLAKEFAEKNPESVANLKIEKITAALPVPFLSPDGIPESAGGSAGGSAG [r3_89_TrMRF]	0.207 ± 0.39 kcal/mol	0.0822 ± 0.24 kcal/mol	0.0947 ± 0.1 kcal/mol
SAGGSAGGSDDSPEDAQKQQAKPEIKIKLHIRFPDGKEYDLDEPFEFPINGQPMRISSIDIVYSAGGSAGGS [r12_43_TrROS]	1.18 ± 0.21 kcal/mol	0.823 ± 0.11 kcal/mol	0.419 ± 0.037 kcal/mol
SAGGSAGGSDEEVEVTLYPVDPSAPDDTVYYAEVTFPNGLVARYRFRKKDGKVEGELVEVKPASAGGSAGGS [r12_1049_TrMRF]	1.95 ± 0.11 kcal/mol	1.91 ± 0.083 kcal/mol	1.65 ± 0.048 kcal/mol
